According to patent US20240190999A1 (Molecular Partners, published 2024):

B1: bispecific construct #48 (designed binder)
chain: MRGSHHHHHHGSDLGEKLLVAALYGQDDEVRILLAAGADVNAKDQWGLTPLHKAALQGHLEIVEVLLKAGADVNAKDERGHTPLHWAARFGHLEIVEVLLKAGADVNAQDQKGYTPADLAALWGHEDIAEVLQKAAGSPTPTPTTPTPTPTTPTPTPTGSDLGKKLLEAARAGQDDEVRELLKAGADVNAKDQEHGSTPLHLAANYGHLEIVEVLLKAGADVNAKNWWGNTPLHLAAVYGHLEIVEVLLKAGADVNAKDNHGHTPLHLAAWYGHLEIVEVLLKAGADVNAQDKSGKTPADLAADAGHEDIAEVLQKAA
notes: 56 is used; also called FAP-4-1BB bispecific construct #48
B2: bispecific construct #46 (designed binder)
chain: MRGSHHHHHHGSDLGEKLLVAALYGQDDEVRILLAAGADVNAKDQWGLTPLHKAALQGHLEIVEVLLKAGADVNAKDERGHTPLHWAARFGHLEIVEVLLKAGADVNAQDQKGYTPADLAALWGHEDIAEVLQKAAGSPTPTPTTPTPTPTTPTPTPTGSDLGRKLLQAAQLGQDDEVRELLKAGADVNAKDSRGITPLHVAAWQGHLEIVEVLLKASADVNAKDHAGITPLHLAAFLGHLEIVEVLLKAGADVNAQDQEGRTPADLAALQGHEDIAKVLQKLN
notes: 56 is used; also called FAP-4-1BB bispecific construct #46
B3: bispecific construct #49 (designed binder)
chain: MRGSHHHHHHGSDLGEKLLVAALYGQDDEVRILLAAGADVNAKDQWGLTPLHKAALQGHLEIVEVLLKAGADVNAKDERGHTPLHWAARFGHLEIVEVLLKAGADVNAQDQKGYTPADLAALWGHEDIAEVLQKAAGSPTPTPTTPTPTPTTPTPTPTGSDLGKKLLVAANVGQDDEVRILLAAGADVNAKDYHGYTPLHHAATYGHLEIVEVLLKAGADVNAKDQTGLTPLHLAAAKGHLEIVEVLLKAGADVNAQDHHGYTPADLAAFVGHEDIAVVLQKLN
notes: 56 is used; also called FAP-4-1BB bispecific construct #49
B4: bispecific construct #47 (designed binder)
chain: MRGSHHHHHHGSDLGEKLLVAALYGQDDEVRILLAAGADVNAKDQWGLTPLHKAALQGHLEIVEVLLKAGADVNAKDERGHTPLHWAARFGHLEIVEVLLKAGADVNAQDQKGYTPADLAALWGHEDIAEVLQKAAGSPTPTPTTPTPTPTTPTPTPTGSDLGKKLLEAARAGQDDEVRELLKAGADVNAKDTYGETPLHLAAWKGHLEIVEVLLKAGADVNAKDSIGITPLHVAAHHGHLEIVEVLLKAGADVNAKDKWGRTPLHLAALLGHLEIAEVLLKAGADVNAQDKSGKTPADLAADAGHDDIAEVLQKLN
notes: 56 is used; also called FAP-4-1BB bispecific construct #47
B5: bispecific construct #45 (designed binder)
chain: MRGSHHHHHHGSDLGEKLLVAALYGQDDEVRILLAAGADVNAKDQWGLTPLHKAALQGHLEIVEVLLKAGADVNAKDERGHTPLHWAARFGHLEIVEVLLKAGADVNAQDQKGYTPADLAALWGHEDIAEVLQKAAGSPTPTPTTPTPTPTTPTPTPTGSDLGDKLLHAAYYGQDDEVRILLAAGADVNAKDTQGLTPLHLAAAIGHLEIVEVLLKAGADVNAKDAYGETPLHLVASRGHLEIVEVLLKAGADVNAQDYSGRTPADLAAEYGHEDIAEVLQKLN
notes: 56 is used; also called FAP-4-1BB bispecific construct #45
B6: His-MpA (His-tagged version of MpA) (designed binder)
chain: GSDLGKKLLEAARAGQDDEVRELLKAGADVNAKDYFSHTPLHLAARNGHLKIVEVLLKAGADVNAKDFAGKTPLHLAAADGHLEIVEVLLKAGADVNAQDIFGKTPADIAADAGHEDIAEVLQKAAGSPTPTPTTPTPTPTTPTPTPTGSDLGKKLLEAARAGQDDEVRELLKAGADVNAKDVLGWTPLHLAAFEGHLEIVEVLLKAGADVNAKDKKGWTPLQLAARTGHLEIVEVLLKAGADVNAKDHIGATPLHLAAWQGHPEIVEVLLKAGADVNAQDKSGKTPADLAADAGHEDIAEVLQKAAGSPTPTPTTPTPTPTTPTPTPTGSDLGQKLLKAAQEGQDDEVRELLKAGADVNAKDLRGITPLHVAAWQGHLEIVEVLLKAGADVNAKDSKGETPLHLAAFRGHLEIVEVLLKAGADVNAQDQQGETPADLAALAGHVDIAEVLQKAAGSPTPTPTTPTPTPTTPTPTPTGSDLGQKLLKAAQEGQDDEVRELLKAGADVNAKDLRGITPLHVAAWQGHLEIVEVLLKAGADVNAKDSKGETPLHLAAFRGHLEIVEVLLKAGADVNAQDQQGETPADLAALAGHVDIAEVLQKAAGSPTPTPTTPTPTPTTPTPTPTGSDLGKKLLEAARAGQDDEVRELLKAGADVNAKDYFSHTPLHLAARNGHLKIVEVLLKAGADVNAKDFAGKTPLHLAAADGHLEIVEVLLKAGADVNAQDIFGKTPADIAADAGHEDIAEVLQKAA
B7: Multispecific binding protein B (MpB) (designed binder)
chain: MRGSHHHHHHGSDLGKKLLEAARAGQDDEVRELLKAGADVNAKDYFSHTPLHLAARNGHLKIVEVLLKAGADVNAKDFAGKTPLHLAAADGHLEIVEVLLKAGADVNAQDIFGKTPADIAADAGHEDIAEVLQKAAGSPTPTPTTPTPTPTTPTPTPTGSDLGEKLLVAALYGQDDEVRELLKAGADVNAKDQWGLTPLHKAALQGHLEIVEVLLKAGADVNAKDERGHTPLHWAARFGHLEIVEVLLKAGADVNAQDQKGYTPADLAALWGHEDIAEVLQKAAGSPTPTPTTPTPTPTTPTPTPTGSDLGQKLLKAAQEGQDDEVRELLKAGADVNAKDLRGITPLHVAAWQGHLEIVEVLLKAGADVNAKDSKGETPLHLAAFRGHLEIVEVLLKAGADVNAQDQQGETPADLAALAGHVDIAEVLQKAAGSPTPTPTTPTPTPTTPTPTPTGSDLGQKLLKAAQEGQDDEVRELLKAGADVNAKDLRGITPLHVAAWQGHLEIVEVLLKAGADVNAKDSKGETPLHLAAFRGHLEIVEVLLKAGADVNAQDQQGETPADLAALAGHVDIAEVLQKAAGSPTPTPTTPTPTPTTPTPTPTGSDLGKKLLEAARAGQDDEVRELLKAGADVNAKDYFSHTPLHLAARNGHLKIVEVLLKAGADVNAKDFAGKTPLHLAAADGHLEIVEVLLKAGADVNAQDIFGKTPADIAADAGHEDIAEVLQKAA

target: T1, biotinylated human 4-1BB (bio.h4-1BB) (human, UniProt Q07011 24-186, limits assumed, biotinylated (site not stated)); assay: SPR (ProteOn XPR36); end of the group's range, tied to #48 by Table 15
T1 construct: also called CD137
Description: (§1) Assay set-up: Briefly, SPR measurements were performed using a ProteOn XPR36 instrument (BioRad) as described above. Biotinylated human and cynomolgus 4-1BB and human FAP were immobilized either directly or indirectly via NeutrAvidin (˜6000 RU pre-coated) on a GLC chip to reach 600 RU, 700 RU and 2000 RU, respectively. The interaction of FAP-4-1BB bispecific constructs to the coated targets was measured by injecting the bispecific constructs in a serial dilution of 50, 16.7, 5.6, 1.9 and 0.6 nM with an association of 120 s and dissociation of 1800 s using a constant flow rate of 30 μl/min. Targets were regenerated between the individual measurements using 10 mM glycine pH 2 and 124 mM H₃PO₄. The signals were double referenced against the running buffer (PBST) treated control lane.

T1 sequence (Q07011 24-186 limits assumed): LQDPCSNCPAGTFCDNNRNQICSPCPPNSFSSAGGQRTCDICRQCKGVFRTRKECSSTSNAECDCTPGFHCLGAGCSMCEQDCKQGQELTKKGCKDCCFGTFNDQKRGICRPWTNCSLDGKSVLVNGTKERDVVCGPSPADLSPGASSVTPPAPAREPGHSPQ

With B1 the Kd was 0.4 to 1.5 nM.

target: T1, biotinylated human 4-1BB (bio.h4-1BB); assay: SPR (ProteOn XPR36), biotinylated h4-1BB immobilised on GLC chip, construct as analyte
Description: as §1

Going from B1 to B2, the Kd rises from 0.44 nM to 1.15 nM (2.6-fold).

B3 and B4 are within 1.5-fold of each other in Kd: 0.86 nM for the first, 0.77 nM for the second.

B5 was tested, and the Kd was 1.47 nM.

target: T2, human 4-1BB on primary human CD8 T cells (human, UniProt Q07011 24-255); assay: cell-based or functional assay
T2 sequence (Q07011 24-255 limits assumed): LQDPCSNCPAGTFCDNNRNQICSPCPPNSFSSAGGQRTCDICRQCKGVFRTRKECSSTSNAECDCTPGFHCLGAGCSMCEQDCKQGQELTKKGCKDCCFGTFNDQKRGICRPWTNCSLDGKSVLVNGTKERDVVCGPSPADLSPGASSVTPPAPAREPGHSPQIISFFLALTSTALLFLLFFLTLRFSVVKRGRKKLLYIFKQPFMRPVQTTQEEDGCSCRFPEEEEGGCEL

B6 and B7 cannot be ordered by “EC50, IFNγ secretion of human CD8 T cells (plate-coated hFAP)” value: 1 to 3 nM for the first, 1 to 2 nM for the second.

target: T3, human fibroblast activation protein (hFAP) (human, UniProt Q12884 26-760, limits assumed); assay: SPR (ProteOn XPR36), hFAP immobilised on GLC chip, construct as analyte
T3 construct: Recombinant soluble protein; also called human FAP; rhFAP
Description: as §1

T3 sequence (Q12884 26-760 limits assumed): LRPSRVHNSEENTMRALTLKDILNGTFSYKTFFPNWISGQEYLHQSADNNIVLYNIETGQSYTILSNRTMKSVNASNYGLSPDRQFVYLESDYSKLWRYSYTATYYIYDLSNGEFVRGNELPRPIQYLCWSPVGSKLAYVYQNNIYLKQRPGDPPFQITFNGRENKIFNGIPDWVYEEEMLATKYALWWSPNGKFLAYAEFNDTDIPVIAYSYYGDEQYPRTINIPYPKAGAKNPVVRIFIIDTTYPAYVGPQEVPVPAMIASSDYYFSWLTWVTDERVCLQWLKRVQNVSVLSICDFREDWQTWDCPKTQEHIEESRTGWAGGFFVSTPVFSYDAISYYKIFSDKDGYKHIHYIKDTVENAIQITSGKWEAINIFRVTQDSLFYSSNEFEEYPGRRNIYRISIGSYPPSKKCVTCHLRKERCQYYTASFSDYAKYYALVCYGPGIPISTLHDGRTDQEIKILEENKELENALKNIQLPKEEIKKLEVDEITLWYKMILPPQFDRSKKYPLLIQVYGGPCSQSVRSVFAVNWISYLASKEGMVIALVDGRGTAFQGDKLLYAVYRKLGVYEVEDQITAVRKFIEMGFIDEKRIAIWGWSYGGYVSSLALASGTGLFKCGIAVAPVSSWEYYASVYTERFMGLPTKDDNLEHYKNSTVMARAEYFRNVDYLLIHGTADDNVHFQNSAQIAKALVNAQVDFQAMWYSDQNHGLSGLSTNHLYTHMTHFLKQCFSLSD

Going from B1 to B2, the Kd rises from 0.17 nM to 0.27 nM (1.6-fold).

Compared with B3, B4 is 2.4-fold lower in Kd: 0.17 nM for the first, 0.07 nM for the second.

Work on B5 yielded a Kd of 0.33 nM.

target: T4, human 4-1BB on transfected HT1080 NF-kB-luciferase reporter cells (human, UniProt Q07011 24-255); assay: cell-based or functional assay
T4 sequence (Q07011 24-255 limits assumed): as the sequence (Q07011 24-255 limits assumed) above

First: B1
Second: B2
The “EC50, 4-1BB activation in HT1080 reporter cells in presence of FAP-expressing CHO cells (Population 1)” value (shortened to “EC50, 4-1BB activation … (Population 1)”) of the first is 2.6-fold lower: 0.28 nM for the first, 0.73 nM for the second.

Going from B3 to B4, the “EC50, 4-1BB activation … (Population 1)” value falls from 0.91 nM to 0.36 nM (2.5-fold).

With B5 the “EC50, 4-1BB activation … (Population 1)” value was 0.67 nM.

target: T2, human 4-1BB on primary human CD8 T cells; assay: cell-based or functional assay; remark: another data set of the same source

Compared with B6, B7 is 1.5-fold lower in “EC50, IFNγ production by primary human CD8 T cells (anti-CD3 plus plate-coated hFAP)” value: 2.37 nM for the first, 1.54 nM for the second.

target: T1, biotinylated human 4-1BB (bio.h4-1BB); assay: SPR (ProteOn XPR36); end of the group's range, tied to #45 by Table 15
Description: as §1

B5 was tested, and the Kd was 0.4 to 1.5 nM.

target: T4, human 4-1BB on transfected HT1080 …; assay: cell-based or functional assay; remark: another data set of the same source

Compared with B1, B2 is 2.3-fold higher in “EC50, 4-1BB activation in HT1080 reporter cells in presence of FAP-expressing CHO cells (Population 2)” value (shortened to “EC50, 4-1BB activation … (Population 2)”): 0.16 nM for the first, 0.37 nM for the second.

Going from B3 to B4, the “EC50, 4-1BB activation … (Population 2)” value falls from 1.04 nM to 0.18 nM (5.8-fold).

In the case of B5, the “EC50, 4-1BB activation … (Population 2)” value is reported as 0.39 nM.

target: T4, human 4-1BB on transfected HT1080 …; assay: cell-based or functional assay; remark: another data set of the same source

Compared with B1, B2 is 1.6-fold higher in “EC50, 4-1BB activation in HT1080 reporter cells in presence of FAP-beads” value (shortened to “EC50, 4-1BB activation … of FAP-beads”): 3.71 nM for the first, 5.85 nM for the second.

B3 and B4 are within 1.5-fold of each other in “EC50, 4-1BB activation … of FAP-beads” value: 6.52 nM for the first, 6.19 nM for the second.

B5 was tested, and the “EC50, 4-1BB activation … of FAP-beads” value was 5.15 nM.

target: T3, human fibroblast activation protein …; assay: SPR (ProteOn XPR36); end of the group's range, tied to #47 by Table 15
Description: as §1

With B4 the Kd was 0.1 to 0.4 nM.
